Experimental findings from article PMC3973330, “A highly divergent archaeo-eukaryotic primase from the Thermococcus nautilus plasmid, pTN2” are described below.

The target of this data set is T1, PolpTN2delta311-923 (Thermococcus nautilus (plasmid pTN2), UniProt D6MY06 1-310).
T1 sequence: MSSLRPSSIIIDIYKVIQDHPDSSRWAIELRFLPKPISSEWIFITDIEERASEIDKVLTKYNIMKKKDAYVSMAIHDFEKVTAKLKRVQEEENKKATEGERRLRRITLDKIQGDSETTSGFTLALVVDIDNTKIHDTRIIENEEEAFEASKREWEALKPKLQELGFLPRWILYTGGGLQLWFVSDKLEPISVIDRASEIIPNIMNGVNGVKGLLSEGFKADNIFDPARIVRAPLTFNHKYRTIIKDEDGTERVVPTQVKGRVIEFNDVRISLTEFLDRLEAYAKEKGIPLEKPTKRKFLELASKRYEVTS
The data set is described as follows: EMSA; 10 mM Mg2+; EMSA: 50 mM Tris-HCl pH 8, 20 mM KCl, 10 mM MgCl2, 7.5 nM probe, 30 min at 65 C; 10% native PAGE in TBE. The conditions noted are these: protein: recombinant; tags: His-tag (pET30, NdeI/XhoI); label: 32P; single strand.

On to AGAGGGUUCAAAAAAUGGUUUCACCCCAAA (ssRNA) [30 RT], for which the binding result is “binds”.
The entry for AGAGGGTTCAAAAAATGGTTTCACCCCAAA (ssDNA) [30 DNA] is “binds”.
